Experimental data reported in article PMC3136132.

B1: 5'BC1-75 RNA, annealed (structured_RNA)
RNA: GGGGUUGGGGAUUUAGCUCAGUGGUAGAGCGCUUGCCUAGCAAGCGCAAGGCCCUGGGUUCGGUCCUCAGCUCU
B2: 3'BC1-60 RNA, annealed (structured_RNA)
RNA: AAAAAAGACAAAAUAACAAAAAGACCAAAAAAAAAACAAGGUAACUGGCACACACAACCUUU

What was measured:
FMRP [1] = target: T1, FMRP (UniProt Q06787 1-632); assay: biotin-RNA affinity capture; 2 uM RNA; slightly less than full-length BC1, P=.15; 50 mM Tris-HCl pH 7.4, 2 mM MgCl2, 150 mM KCl, 1 mM EDTA, 1 mM DTT (Schaeffer buffer without tRNA, supplemented with 125 mM NaCl); SoftLink avidin resin; temper
FMRP [2] = target: T1, FMRP; assay: biotin-RNA affinity capture; 2 uM RNA; 50 mM Tris-HCl pH 7.4, 2 mM MgCl2, 150 mM KCl, 1 mM EDTA, 1 mM DTT (Schaeffer buffer without tRNA, supplemented with 125 mM NaCl); SoftLink avidin resin; temper

Binder | binding result (FMRP [1]) | binding result (FMRP [2])
B1 | binds | 
B2 |  | no binding
